Data taken from IntAct's records for PubMed 18171471.

B1: Focal adhesion kinase 1 (Gallus gallus (Chicken)), Q00944 (parent)
chain: MAAAYLDPNLNHTPSSSAKTHLGTGMERSPGAMERVLKVFHYFENSSEPTTWASIIRHGDATDVRGIIQKIVDCHKVKNVACYGLRLSHLQSEEVHWLHLDMGVSNVREKFELAHPPEEWKYELRIRYLPKGFLNQFTEDKPTLNFFYQQVKNDYMLEIADQVDQEIALKLGCLEIRRSYGEMRGNALEKKSNYEVLEKDVGLRRFFPKSLLDSVKAKTLRKLIQQTFRQFANLNREESILKFFEILSPVYRFDKECFKCALGSSWIISVELAIGPEEGISYLTDKGANPTHLADFNQVQTIQYSNSEDKDRKGMLQLKIAGAPEPLTVTAPSLTIAENMADLIDGYCRLVNGATQSFIIRPQKEGERALPSIPKLANNEKQGVRSHTVSVSETDDYAEIIDEEDTYTMPSTRDYEIQRERIELGRCIGEGQFGDVHQGIYMSPENPAMAVAIKTCKNCTSDSVREKFLQEALTMRQFDHPHIVKLIGVITENPVWIIMELCTLGELRSFLQVRKFSLDLASLILYAYQLSTALAYLESKRFVHRDIAARNVLVSATDCVKLGDFGLSRYMEDSTYYKASKGKLPIKWMAPESINFRRFTSASDVWMFGVCMWEILMHGVKPFQGVKNNDVIGRIENGERLPMPPNCPPTLYSLMTKCWAYDPSRRPRFTELKAQLSTILEEEKLQQEERMRMESRRQVTVSWDSGGSDEAPPKPSRPGYPSPRSSEGFYPSPQHMVQPNHYQVSGYSGSHGIPAMAGSIYPGQASLLDQTDSWNHRPQEVSAWQPNMEDSGTLDVRGMGQVLPTHLMEERLIRQQQEMEEDQRWLEKEERFLVMKPDVRLSRGSIEREDGGLQGPAGNQHIYQPVGKPDHAAPPKKPPRPGAPHLGSLASLNSPVDSYNEGVKIKPQEISPPPTANLDRSNDKVYENVTGLVKAVIEMSSKIQPAPPEEYVPMVKEVGLALRTLLATVDESLPVLPASTHREIEMAQKLLNSDLAELINKMKLAQQYVMTSLQQEYKKQMLTAAHALAVDAKNLLDVIDQARLKMISQSRPH

Variants of: B1
Conditions: with paxi_chick PXN

Row | Variant | effect of a mutation on the interaction
1 | E949A;K956A;R963A | decreasing interaction
2 | I937A | decreasing interaction
